Source: IntAct's records for PubMed 12732728

B1: RNA polymerase II subunit A C-terminal domain phosphatase (Homo sapiens), Q9Y5B0 (parent)
chain: MEVPAAGRVPAEGAPTAAVAEVRCPGPAPLRLLEWRVAAGAAVRIGSVLAVFEAAASAQSSGASQSRVASGGCVRPARPERRLRSERAGVVRELCAQPGQVVAPGAVLVRLEGCSHPVVMKGLCAECGQDLTQLQSKNGKQQVPLSTATVSMVHSVPELMVSSEQAEQLGREDQQRLHRNRKLVLMVDLDQTLIHTTEQHCQQMSNKGIFHFQLGRGEPMLHTRLRPHCKDFLEKIAKLYELHVFTFGSRLYAHTIAGFLDPEKKLFSHRILSRDECIDPFSKTGNLRNLFPCGDSMVCIIDDREDVWKFAPNLITVKKYVYFQGTGDMNAPPGSRESQTRKKVNHSRGTEVSEPSPPVRDPEGVTQAPGVEPSNGLEKPARELNGSEAATPRDSPRPGKPDERDIWPPAQAPTSSQELAGAPEPQGSCAQGGRVAPGQRPAQGATGTDLDFDLSSDSESSSESEGTKSSSSASDGESEGKRGRQKPKAAPEGAGALAQGSSLEPGRPAAPSLPGEAEPGAHAPDKEPELGGQEEGERDGLCGLGNGCADRKEAETESQNSELSGVTAGESLDQSMEEEEEEDTDEDDHLIYLEEILVRVHTDYYAKYDRYLNKEIEEAPDIRKIVPELKSKVLADVAIIFSGLHPTNFPIEKTREHYHATALGAKILTRLVLSPDAPDRATHLIAARAGTEKVLQAQECGHLHVVNPDWLWSCLERWDKVEEQLFPLRDDHTKAQRENSPAAFPDREGVPPTALFHPMPVLPKAQPGPEVRIYDSNTGKLIRTGARGPPAPSSSLPIRQEPSSFRAVPPPQPQMFGEELPDAQDGEQPGPSRRKRQPSMSETMPLYTLCKEDLESMDKEVDDILGEGSDDSDSEKRRPEEQEEEPQPRKPGTRRERTLGAPASSERSAAGGRGPRGHKRKLNEEDAASESSRESSNEDEGSSSEADEMAKALEAELNDLM

Variants of: B1
Conditions: with t2fa_human GTF2F1, P35269
t2fa_human GTF2F1, P35269, sequence (P35269 whole entry): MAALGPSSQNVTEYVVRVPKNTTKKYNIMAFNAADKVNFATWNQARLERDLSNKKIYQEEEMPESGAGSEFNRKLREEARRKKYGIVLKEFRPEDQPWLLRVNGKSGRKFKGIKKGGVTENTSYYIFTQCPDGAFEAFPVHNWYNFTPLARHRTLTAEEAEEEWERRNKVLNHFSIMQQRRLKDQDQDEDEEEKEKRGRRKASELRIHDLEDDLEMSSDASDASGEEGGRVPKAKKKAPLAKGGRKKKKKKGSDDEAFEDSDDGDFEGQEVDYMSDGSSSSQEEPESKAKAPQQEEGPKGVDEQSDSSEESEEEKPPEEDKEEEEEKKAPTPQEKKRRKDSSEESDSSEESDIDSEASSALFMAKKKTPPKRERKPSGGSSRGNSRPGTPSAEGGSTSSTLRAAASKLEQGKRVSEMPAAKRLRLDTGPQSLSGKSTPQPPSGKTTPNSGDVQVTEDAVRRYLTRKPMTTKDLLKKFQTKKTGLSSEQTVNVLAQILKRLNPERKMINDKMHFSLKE

Variant | effect of a mutation on the interaction
E956A;L957A | decreasing interaction
